Test results published in the RNAGym collection of RNA variant scans (doi:10.1073/pnas.2313332121).
Fewer inactive variants are shown than the library holds.

B1: TPR 5TU (parent)
chain: GGAUCUUCUCGAUCUAACAAAAAAGACAAAUCUGCCACAAAGCUUGAGAGCAUCUUCGGAUGCAGAGGCGGCAGCCUUCGGUGGCGCGAUAGCGCCAACGUUCUCAACUAUGACACGCAAAACGCGUGCUCCGUUGAAUGGAGUUUAUCAUG

Variants of: B1
Experiment: polymerase ribozyme fitness, log enrichment relative to wild type (log ratio); higher = more active; in vitro selection for triplet polymerase activity
Procedure, shortened: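 Mutant libraries of each subunit of a heterodimeric triplet polymerase ribozyme were built by PCR and transcribed. Each library went through one round of in vitro selection in triplicate: annealing with biotinylated primer, partner subunit and triplets, frozen incubation at −7 °C, gel excision of extended constructs, streptavidin-bead capture and RT-PCR. Input and output libraries were Illumina-sequenced; only genotypes with ≥10 input reads and ≥1 read per output were kept. Fitness is log2(genotype enrichment/wild-type enrichment), using inverse-variance-weighted replicate averages.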

Point of comparison: C72U A122G, “polymerase ribozyme fitness (log ratio)” value -0.726. Against it:
- C69G C103G C116U — lower, -2.03
- C69U G94A A122G U135A U146G — lower, -2.95
- C69A G83A G143U — lower, -3.59
- C69G A106C A137C — lower, ≤ -4.2
- G68C G84A C85A — lower, ≤ -4.2
- A73C A91G C116U — lower, ≤ -4.2
- A73G C76U C93A C99A U145A — lower, ≤ -4.2
- G70A C87U C96A C118G A147C — lower, ≤ -4.2
- C69A G94C — within 0.2 log units, -0.673
- C69A C72U — lower, -3.05
- C69A A91G — lower, -3.81
- C69A A91U — lower, ≤ -4.2
- G71U G94C A110G — lower, ≤ -4.2
- C72G G83U G124U G128U G133A U148A — lower, ≤ -4.2
- C72U G128U — lower, -3.1
- C72U C76A G84A C87U A91G A106G C125A — lower, ≤ -4.2
- C72U A147C — lower, -1.72
- C72U A147U — higher, 0.651
- G71A U104C — lower, -3.42
- G70A G86U — lower, -3.77
- G70A A97U — lower, -3.59
- G70A A97G — lower, -3.26
- G68C C85G G136C — lower, ≤ -4.2
- C69G U101G G133U — lower, -3.95
- C72G C96U C116U — lower, ≤ -4.2
- C69G G126U C131A — lower, ≤ -4.2
- G68A C85U A97U A107U G128A C132U — lower, ≤ -4.2
- G68A C72U — lower, -4.15
- A73C A142U — lower, ≤ -4.2
- G71U G92U G136A — lower, -2.26
- C72U G126U — higher, -0.101
- G70C G84U A107U — lower, ≤ -4.2
- C69U G100A A137C — lower, ≤ -4.2
- G68U C103U G141C — lower, ≤ -4.2
- G71U U144G — lower, -1.84
- G71U A89U — lower, -2.83
- G71A C76G U82A G83C C131A — lower, ≤ -4.2
- G68A C79U U139G U146C — lower, ≤ -4.2
- C72U G152A — lower, -2.42
- C72G U77G G84A C114G — lower, ≤ -4.2
- C69U G126A — higher, 0.958
- G70A G141A — lower, -3.46
- G68U U101C — lower, -4.07
- C69U G86C — lower, ≤ -4.2
- C69A A73G — lower, -2.98
- C69U C87A G141U G143A — lower, ≤ -4.2
- G68A A91C A120G A147C — lower, ≤ -4.2
- G68A G88A C96G C118A G126A — lower, -4.16
- C69A G70A — lower, -4.19
- C69A U104G — lower, -3.09
- G68A C85U — lower, -3.48
- G68A C85G — lower, ≤ -4.2
- G70C G136C — lower, ≤ -4.2
- G70C U134G — lower, -4.17
- G68A A106C A120G A138C — lower, ≤ -4.2
- C69U C85G — lower, -2.16
- C69U C85A — lower, -3.16
- C72U G86A C95A A97G A98U U104A A122U — lower, ≤ -4.2
- G70A G84A C87G A113C A120G — lower, ≤ -4.2
- C69U C75U G92A U104G G133U C149U — lower, ≤ -4.2
- G70C G126U G152A — lower, -3.99
- C69U C132G G140U — lower, -1
- G70U G80U A119G — lower, ≤ -4.2
- G68U G128U — lower, ≤ -4.2
- G68C C93G C131A — lower, ≤ -4.2
- G70A C93U G141C — lower, ≤ -4.2
- G68A A91G G128A — lower, ≤ -4.2
- C72U G83A C93U U111C A120U G143U — lower, ≤ -4.2
- G68C G88U U104G C114U U127C — lower, ≤ -4.2
- A73G C96G C105A U139A — lower, ≤ -4.2
- G68A C93U — lower, -4.04
- C72U U145A — higher, 0.261
- C69U C76G — lower, ≤ -4.2
- G68C U104G C105G C118U G133C — lower, ≤ -4.2
- C69A G83C — lower, -3.07
- G68U C69A A113G G117A — lower, ≤ -4.2
- G70A A91U C123U A138C C149U — lower, ≤ -4.2
- G68C A122C — lower, ≤ -4.2
- G70A G83U C105A A147C U148A — lower, ≤ -4.2
- A73G A97G — higher, 0.222
- G68C C99G A106G C129U — lower, ≤ -4.2
- C69A C76A U109C — lower, ≤ -4.2
